# From the RNAGym collection of RNA variant scans (doi:10.1093/nar/gkz1192)
# B1: CPEB3 Ribozyme (parent)
# chain: UAACAGGGGGCCACAGCAGAAGCGUUCACGUCGCAGCCCCUGUCAGAUUCUGGUGAAUCUGCGAAUUCUGCUGUAUAUCUC
# Variants of: B1
# Assay: self-cleavage, relative activity (ratio to wild type); higher = more cleavage; in vitro, sequencing
# Summary of the method: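 Relative activity compares each variant's cleaved/total read fraction with that of the unmutated ribozyme. To get these fractions, barcoded CPEB3 ribozyme libraries from rounds of error-prone PCR were transcribed with T7 RNA polymerase for 5 hours at 37°C and then given 15 min of DNase I treatment before EDTA was added. The RNAs were reverse transcribed with template switching and sequenced on Illumina, and DNA sequencing linked barcodes to variants. A minimum of 5 reads applied, and three batches were averaged.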
row,Variant,self-cleavage
1,UAACAGGGGGCCACAGCAGAAGCGUUCACGUCGCAGCCCCUGUCAGAUUCUGGUGAAUCUAUGAAUUCUGCUGUAUAUCUC [G61A C62U],0.17
2,UAACAGGGGGCCACAGCAGAAGCGUUCACGUCGCAGCCCCUGUCAGAUUCUGGUGAAUCCGCGAAUUCCGCUGUAUAUCUC [U60C U69C],0.37
3,UAACAGGGGGCCACAGCAGAAGCGUUCACGUCGCAGCCCCUGUCAGAUUCUGGUGAAUCCGCGAAUUCAGCUGUAUAUCUC [U60C U69A],0.35
4,UAACAGGGGGCCACAGCAGAAGCGUUCACGUCGCAGCCCCUGUCAGAUUCUGGUGAAUCCGCGAAUUCGGCUGUAUAUCUC [U60C U69G],0.39
5,UAACAGGGGGCCACAGCAGAAGCGUUCACGUCGCAGCCCCUGUCAGAUUCUGGUGAAUCGGCGAAUUCUGUUGUAUAUCUC [U60G C71U],0.2
6,UAACAGGGGGCCACAGCAGAAGCGUUCACGUCGCAGCCCCUGUCAGAUUCUGGUGAAUCUACGAACUCUGCUGUAUAUCUC [G61A U66C],0.39
7,UAACAGGGGGCCACAGCAGAAGCGUUCACGUCGCAGCCCCUGUCAGAUUCUGGUGAAUCGGCGAAUUCUGCCGUAUAUCUC [U60G U72C],0.32
8,UAACAGGGGGCCACAGCAGAAGCGUUCACGUCGCAGCCCCUGUCAGAUUCUGGUGAAUCGGCGAAUUCUGCGGUAUAUCUC [U60G U72G],0.28
9,UAACAGGGGGCCACAGCAGAAGCGUUCACGUCGCAGCCCCUGUCAGAUUCUGGUGAAUCGGCGAAUUCUGCAGUAUAUCUC [U60G U72A],0.22
10,UAACAGGGGGCCACAGCAGAAGCGUUCACGUCGCAGCCCCUGUCAGAUUCUGGUGAAUCCGCGAAUUCUGCUGAAUAUCUC [U60C U74A],0.96
11,UAACAGGGGGCCACAGCAGAAGCGUUCACGUCGCAGCCCCUGUCAGAUUCUGGUGAAUCCGCGAAUUCUGCUGCAUAUCUC [U60C U74C],0.79
12,UAACAGGGGGCCACAGCAGAAGCGUUCACGUCGCAGCCCCUGUCAGAUUCUGGUGAAUCCGCGAAUUCUGCUGGAUAUCUC [U60C U74G],0.66
13,UAACAGGGGGCCACAGCAGAAGCGUUCACGUCGCAGCCCCUGUCAGAUUCUGGUGAAUCGGCGAAUUCUGCUGUAUAUCCC [U60G U80C],0.63
14,UAACAGGGGGCCACAGCAGAAGCGUUCACGUCGCAGCCCCUGUCAGAUUCUGGUGAAUCCGCGAAUUCUGCUGUAAAUCUC [U60C U76A],0.58
15,UAACAGGGGGCCACAGCAGAAGCGUUCACGUCGCAGCCCCUGUCAGAUUCUGGUGAAUCCGCGAAUUCUGCUGUAGAUCUC [U60C U76G],0.51
16,UAACAGGGGGCCACAGCAGAAGCGUUCACGUCGCAGCCCCUGUCAGAUUCUGGUGAAUCCGCGAAUUCUGCUGUACAUCUC [U60C U76C],0.51
17,UAACAGGGGGCCACAGCAGAAGCGUUCACGUCGCAGCCCCUGUCAGAUUCUGGUGAAUCCGCGAAUCCUGCUGUAUAUCUC [U60C U67C],0.35

row,Variant,self-cleavage
1,UAACAGGGGGCCACAGCAGAAGCGUUCACGUCGCAGCCCCUGUCAGAUUCUGGUGAAUCCGCGAAUACUGCUGUAUAUCUC [U60C U67A],0.3
2,UAACAGGGGGCCACAGCAGAAGCGUUCACGUCGCAGCCCCUGUCAGAUUCUGGUGAAUCCGCGAAUGCUGCUGUAUAUCUC [U60C U67G],0.2
3,UAACAGGGGGCCACAGCAGAAGCGUUCACGUCGCAGCCCCUGUCAGAUUCUGGUGAAUCCGCGAAUUCUGCUCUAUAUCUC [U60C G73C],0.9
4,UAACAGGGGGCCACAGCAGAAGCGUUCACGUCGCAGCCCCUGUCAGAUUCUGGUGAAUCCGCGAAUUCUGCUAUAUAUCUC [U60C G73A],1.09
5,UAACAGGGGGCCACAGCAGAAGCGUUCACGUCGCAGCCCCUGUCAGAUUCUGGUGAAUCCGCGAAUUCUGCUGUAUAACUC [U60C U78A],0.55
6,UAACAGGGGGCCACAGCAGAAGCGUUCACGUCGCAGCCCCUGUCAGAUUCUGGUGAAUCCGCGAAUUCUGCUGUAUACCUC [U60C U78C],0.45
7,UAACAGGGGGCCACAGCAGAAGCGUUCACGUCGCAGCCCCUGUCAGAUUCUGGUGAAUCGGCGAAGUCUGCUGUAUAUCUC [U60G U66G],0.24
8,UAACAGGGGGCCACAGCAGAAGCGUUCACGUCGCAGCCCCUGUCAGAUUCUGGUGAAUCGGCGAACUCUGCUGUAUAUCUC [U60G U66C],0.15
9,UAACAGGGGGCCACAGCAGAAGCGUUCACGUCGCAGCCCCUGUCAGAUUCUGGUGAAUCGGAGAAUUCUGCUGUAUAUCUC [U60G C62A],0.34
10,UAACAGGGGGCCACAGCAGAAGCGUUCACGUCGCAGCCCCUGUCAGAUUCUGGUGAAUCUACGAAUUCUGCUGUACAUCUC [G61A U76C],0.88
11,UAACAGGGGGCCACAGCAGAAGCGUUCACGUCGCAGCCCCUGUCAGAUUCUGGUGAAUCUACAAAUUCUGCUGUAUAUCUC [G61A G63A],0.84
12,UAACAGGGGGCCACAGCAGAAGCGUUCACGUCGCAGCCCCUGUCAGAUUCUGGUGAAUCGGCGAAUUCAGCUGUAUAUCUC [U60G U69A],0.39
13,UAACAGGGGGCCACAGCAGAAGCGUUCACGUCGCAGCCCCUGUCAGAUUCUGGUGAAUCGGCGAAUUCCGCUGUAUAUCUC [U60G U69C],0.23
14,UAACAGGGGGCCACAGCAGAAGCGUUCACGUCGCAGCCCCUGUCAGAUUCUGGUGAAUCUACGAGUUCUGCUGUAUAUCUC [G61A A65G],0.39
15,UAACAGGGGGCCACAGCAGAAGCGUUCACGUCGCAGCCCCUGUCAGAUUCUGGUGAAUCUACGAAUUCUUCUGUAUAUCUC [G61A G70U],0.12
16,UAACAGGGGGCCACAGCAGAAGCGUUCACGUCGCAGCCCCUGUCAGAUUCUGGUGAAUCGGCGAAUUCUACUGUAUAUCUC [U60G G70A],0.21
17,UAACAGGGGGCCACAGCAGAAGCGUUCACGUCGCAGCCCCUGUCAGAUUCUGGUGAAUCCGCGAAUUCUGCAGUAUAUCUC [U60C U72A],0.37
